Residue numbers refer to the chain shown, from its start.
Tests used:
[1] = tested on: T1, PRIRTVGPGSRRASGKLTCLASYCWLFWTGIA
T1 sequence: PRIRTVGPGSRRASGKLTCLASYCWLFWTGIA

KKLTCLASYCWLF = tested on: T2, KKLTCLASYCWLF
T2 sequence: KKLTCLASYCWLF

compound 21 = tested on: T3, compound 21
T3 sequence: T1 sequence with R12S

[2] = tested on: T4, RRAPGKLTCLASYCWLF WTGFA FRVGLASSLY
T4 sequence: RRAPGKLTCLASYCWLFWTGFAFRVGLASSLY

[3] = tested on: T5, QWQIAGQVLKRRAPA KLTCLASYCWLFWTGIA
T5 sequence: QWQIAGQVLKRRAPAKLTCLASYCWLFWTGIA

KLTCL-Dpr-SYCWLF = tested on: T6, KLTCL-Dpr-SYCWLF
T6 sequence: KLTCLXSYCWLF

RRAPGKLQCLASYCWLFWTAIA = tested on: T7, RRAPGKLQCLASYCWLFWTAIA
T7 sequence: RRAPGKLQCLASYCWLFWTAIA

[4] = tested on: T8, RRAPGKLTCLASYCWLF LGGIA PEGASTRTAN
T8 sequence: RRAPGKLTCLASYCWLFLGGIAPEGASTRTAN

[5] = tested on: T9, RRAPGKCTALASYAWCFWTGIA-COOH
T9 sequence: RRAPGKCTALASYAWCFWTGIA

[6] = tested on: T10, RRAPGKLT-Dab-LASY-Asp-WLFWTGIA-CONH2
T10 sequence: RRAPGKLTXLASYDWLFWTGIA

[7] = tested on: T11, QRAGRVARLH RRAPN KLTCLASYCWLFWTGIA
T11 sequence: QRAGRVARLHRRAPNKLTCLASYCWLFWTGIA

[8] = tested on: T12, SRIRTVGPGSRSASGKLTCLASYCWLFWTGIA
T12 sequence: T1 sequence with P1S, R12S

[9] = tested on: T13, RRAPGKLTCLASYCWLF WTGLL DYPTPQSHEP
T13 sequence: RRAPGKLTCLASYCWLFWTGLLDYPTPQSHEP

RRAPGKLQCLASYCWLFATAIA = tested on: T14, RRAPGKLQCLASYCWLFATAIA
T14 sequence: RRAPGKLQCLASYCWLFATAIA

DAKVAKLRCLGSQCWLLQYAPG = tested on: T15, DAKVAKLRCLGSQCWLLQYAPG
T15 sequence: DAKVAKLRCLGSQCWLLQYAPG

[10] = tested on: T16, RRAPGKLT-Lys-LASY-Asp-WLFWTGIA-COOH
T16 sequence: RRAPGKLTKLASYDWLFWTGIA

[11] = tested on: T17, TALSRGLVTM RTAPD KLTCLASYCWLFWTGIA
T17 sequence: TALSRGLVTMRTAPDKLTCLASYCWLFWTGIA

[12] = tested on: T18, KLTCLASYCWLF-(PEG)4-CONH2
T18 sequence: KLTCLASYCWLF

KRAPGKLQCLASYCWLFWTGIA = tested on: T19, KRAPGKLQCLASYCWLFWTGIA
T19 sequence: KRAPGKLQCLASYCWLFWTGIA

For human Factor IXa, which Vmax, FXa generation assay [1] is on record?
The Vmax, FXa generation assay was greater than 3.

And the Vmax, FXa generation assay (KKLTCLASYCWLF)?
The Vmax, FXa generation assay was greater than 3.

What about the Vmax, FXa generation assay with hFIXa (compound 21) of the same substance?
Its Vmax, FXa generation assay with hFIXa is greater than 3.

And the Vmax, FXa generation assay [2]?
The Vmax, FXa generation assay was greater than 3.

And the Vmax, FXa generation assay [3]?
Its Vmax, FXa generation assay is greater than 2.

And the “Vmax, FXa generation assay; (++) means 1-2” value (“Vmax … (++) means 1-2” below) (KLTCL-Dpr-SYCWLF)?
The value was “(++)”.

What about the Vmax, FXa generation assay (RRAPGKLQCLASYCWLFWTAIA) of the same substance?
The Vmax, FXa generation assay was greater than 2.

And the Vmax, FXa generation assay [4]?
The Vmax, FXa generation assay was greater than 3.

And the Vmax, FXa generation assay [5]?
The Vmax, FXa generation assay was greater than 2.

And the Vmax, FXa generation assay [6]?
Its Vmax, FXa generation assay is greater than 2.

What about the Vmax, FXa generation assay [7] of the same substance?
Its Vmax, FXa generation assay is greater than 2.

And the Vmax, FXa generation assay [8]?
Its Vmax, FXa generation assay is greater than 3.

What about the Vmax, FXa generation assay [9] of the same substance?
The Vmax, FXa generation assay was greater than 2.

What about the Vmax, FXa generation assay (RRAPGKLQCLASYCWLFATAIA) of the same substance?
The Vmax, FXa generation assay was greater than 3.

And the “Vmax … (++) means 1-2” value (DAKVAKLRCLGSQCWLLQYAPG)?
The value was “(++)”.

And the Vmax, FXa generation assay [10]?
The Vmax, FXa generation assay was greater than 0.5.

What about the “Vmax … (++) means 1-2” value [11] of the same substance?
The value was “(++)”.

What about the “Vmax … (++) means 1-2” value [12] of the same substance?
The value was “(++)”.

What about the Vmax, FXa generation assay (KRAPGKLQCLASYCWLFWTGIA) of the same substance?
Its Vmax, FXa generation assay is greater than 2.

Reference: patent US20140303084
